± gives the standard deviation of the averaged measurements.
System: ATP
Experiment: switch fluorescence ratio, 500 uM ATP over buffer (Cy3 cluster intensity, sum of 5 cycles each) (fold (ratio)); higher = stronger signal-on switching upon ATP binding; sequences stand for … in TCGTCGGCAGCGTCAGATGTGTATAAGAGACAGTTTTTTTTTTTTTTTTTTTTTTTTT…TC
Details: aptamer strand: ATP DNA aptamer (quencher-CACCTGGGGGAGTATTGCGGAGGAAGG + anchor), 100 nM annealed; ATP concentration: 500 uM
Outline: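 Imaging in selection buffer was followed by imaging after 15 min with 500 uM ATP at 22 °C, for Cy3-labelled switching-strand clusters annealed to 100 nM quencher-labelled ATP aptamer on a modified Illumina MiSeq flow-cell. Five of these buffer/ATP cycles ran, separated by NaOH stripping and re-annealing. The fluorescence ratio per cluster is summed target-cycle over summed buffer-cycle Cy3 intensity, averaged per switch-domain sequence; clusters outside 100-1000 RFU were removed.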
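Also: ATP exposure 15 min at 22 °C before imaging.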

TTTACTTACG
switch fluorescence ratio: 1.22 ± 0.18

TTTACTTATT
switch fluorescence ratio: 1 ± 0.019

TTTACTTGGG
switch fluorescence ratio: 0.9767 ± 0.0077

TTTACTTTCC
switch fluorescence ratio: 1.56 ± 0.16

TTTAGACGTT
switch fluorescence ratio: 1.02 ± 0.016

TTTAGAGAGA
switch fluorescence ratio: 0.975 ± 0.015

TTTAGATGTG
switch fluorescence ratio: 1 ± 0.014

TTTAGCAGGT
switch fluorescence ratio: 1.05 ± 0.014

TTTAGCCATT
switch fluorescence ratio: 0.992 ± 0.012

TTTAGCTTGT
switch fluorescence ratio: 0.972 ± 0.011

TTTAGGAAGT
switch fluorescence ratio: 1.0072 ± 0.00083

TTTAGGCATT
switch fluorescence ratio: 1.03 ± 0.031

TTTAGGCCGT
switch fluorescence ratio: 1.05 ± 0.066

TTTAGGGGCG
switch fluorescence ratio: 1.03 ± 0.1

TTTAGGGGCT
switch fluorescence ratio: 0.9764 ± 0.0076

TTTAGGGTGT
switch fluorescence ratio: 1.05 ± 0.071

TTTAGGGTTC
switch fluorescence ratio: 1.04 ± 0.1

TTTAGGGTTG
switch fluorescence ratio: 0.988 ± 0.022

TTTAGGTAAC
switch fluorescence ratio: 0.9922 ± 0.0079

TTTAGGTGTA
switch fluorescence ratio: 0.985 ± 0.02

TTTAGGTGTT
switch fluorescence ratio: 1.05 ± 0.074

TTTAGGTTGG
switch fluorescence ratio: 0.994 ± 0.031

TTTAGTTGAT
switch fluorescence ratio: 1.01 ± 0.031

TTTAGTTTTG
switch fluorescence ratio: 1.017 ± 0.005

TTTATAAATT
switch fluorescence ratio: 0.972 ± 0.032

TTTATAACCA
switch fluorescence ratio: 1.05 ± 0.024

TTTATACAA
switch fluorescence ratio: 1.018 ± 0.0097

TTTATACCAG
switch fluorescence ratio: 1.004 ± 0.0066

TTTATAGCT
switch fluorescence ratio: 1.02 ± 0.027

TTTATAGGCT
switch fluorescence ratio: 1.01 ± 0.047

TTTATATGTC
switch fluorescence ratio: 1.12 ± 0.23

TTTATATTAT
switch fluorescence ratio: 0.993 ± 0.043

TTTATATTTC
switch fluorescence ratio: 0.99 ± 0.046

TTTATCACCT
switch fluorescence ratio: 1.14 ± 0.021

TTTATCACGT
switch fluorescence ratio: 0.975 ± 0.0077

TTTATCATGC
switch fluorescence ratio: 0.987 ± 0.019

TTTATCCAAT
switch fluorescence ratio: 0.984 ± 0.037

TTTATCCGAC
switch fluorescence ratio: 1.15 ± 0.027

TTTATCCGAG
switch fluorescence ratio: 1.04 ± 0.042

TTTATCCGGG
switch fluorescence ratio: 0.99 ± 0.05

TTTATCGCCG
switch fluorescence ratio: 0.974 ± 0.022

TTTATCGGCT
switch fluorescence ratio: 1.06 ± 0.078

TTTATCGGGG
switch fluorescence ratio: 0.988 ± 0.011

TTTATCGGTG
switch fluorescence ratio: 0.995 ± 0.035

TTTATCTATT
switch fluorescence ratio: 1 ± 0.012

TTTATCTTCC
switch fluorescence ratio: 2.41 ± 0.065

TTTATCTTCG
switch fluorescence ratio: 1.04 ± 0.017

TTTATGAAGA
switch fluorescence ratio: 0.985 ± 0.027

TTTATGAATT
switch fluorescence ratio: 1.03 ± 0.019

TTTATGACAT
switch fluorescence ratio: 0.971 ± 0.029

TTTATGAGCA
switch fluorescence ratio: 0.998 ± 0.035

TTTATGAGGT
switch fluorescence ratio: 0.999 ± 0.02

TTTATGCGGG
switch fluorescence ratio: 1.02 ± 0.048

TTTATGCTTG
switch fluorescence ratio: 0.974 ± 0.044

TTTATGGAGA
switch fluorescence ratio: 0.998 ± 0.015

TTTATGGCAT
switch fluorescence ratio: 1.02 ± 0.027

TTTATGGCCC
switch fluorescence ratio: 1.01 ± 0.064

TTTATGGGGT
switch fluorescence ratio: 1.01 ± 0.028

TTTATGGTGG
switch fluorescence ratio: 1.01 ± 0.013

TTTATGTAGG
switch fluorescence ratio: 0.9887 ± 0.0044

TTTATGTATG
switch fluorescence ratio: 1.02 ± 0.034

TTTATTAATT
switch fluorescence ratio: 1 ± 0.029

TTTATTAGCT
switch fluorescence ratio: 1.02 ± 0.043

TTTATTAGGG
switch fluorescence ratio: 0.975 ± 0.021

TTTATTATTG
switch fluorescence ratio: 0.989 ± 0.035

TTTATTCCTT
switch fluorescence ratio: 1.02 ± 0.018

TTTATTCTAT
switch fluorescence ratio: 1.02 ± 0.011

TTTATTGAGT
switch fluorescence ratio: 0.978 ± 0.048

TTTATTGGAA
switch fluorescence ratio: 0.9858 ± 0.0091

TTTATTGTGG
switch fluorescence ratio: 0.9934 ± 0.0071

TTTATTTATG
switch fluorescence ratio: 1.007 ± 0.0065

TTTATTTATT
switch fluorescence ratio: 0.998 ± 0.021

TTTATTTCCA
switch fluorescence ratio: 0.996 ± 0.03

TTTATTTGCT
switch fluorescence ratio: 0.9809 ± 0.0098

TTTATTTGTT
switch fluorescence ratio: 1 ± 0.021

TTTATTTTG
switch fluorescence ratio: 0.95563 ± 0.00051

From the supplement of paper PMC10126150
